The labels stand for the following.
B1: CCR5-224 site 25 WBSCR17 (dsDNA)
DNA 1: GTTATCCTCAGCAAACTAAAACTGGAACAG
DNA 2: CTGTTCCAGTTTTAGTTTGCTGAGGATAAC
B2: CCR5-224 site 16 (dsDNA)
DNA 1: GTCTTCCTGATGCTACCAAACTGGAAAAG
DNA 2: CTTTTCCAGTTTGGTAGCATCAGGAAGAC
B3: CCR5-224 site 9 (dsDNA)
DNA 1: GTCATCTTCATCAAAAGGAACTGCAAAAC
DNA 2: GTTTTGCAGTTCCTTTTGATGAAGATGAC
B4: CCR5-224 site 3 BTBD10 promoter (dsDNA)
DNA 1: GTTTTCCTCATCAAAGCAAACTGCAAAAT
DNA 2: ATTTTGCAGTTTGCTTTGATGAGGAAAAC
B5: CCR5-224 site 21 (dsDNA)
DNA 1: GTCAACCTCAACACCTACAGACTGCAAAAG
DNA 2: CTTTTGCAGTCTGTAGGTGTTGAGGTTGAC
B6: CCR5-224 site 14 (dsDNA)
DNA 1: GTCCTGCTCAGCAAAAGAAACTGAAAAAG
DNA 2: CTTTTTCAGTTTCTTTTGCTGAGCAGGAC
B7: CCR5-224 site 2 CCR2 (dsDNA)
DNA 1: GTCGTCCTCATCTTAATAAACTGCAAAAA
DNA 2: TTTTTGCAGTTTATTAAGATGAGGACGAC
B8: CCR5-224 site 15 KCNB2 (dsDNA)
DNA 1: ATGTTCCTCATCTCCCGAAACTGCAAATG
DNA 2: CATTTGCAGTTTCGGGAGATGAGGAACAT
B9: CCR5-224 site 1 CCR5 (dsDNA)
DNA 1: GTCATCCTCATCCTGATAAACTGCAAAAG
DNA 2: CTTTTGCAGTTTATCAGGATGAGGATGAC
B10: CCR5-224 site 11 TACR3 (dsDNA)
DNA 1: GTCATCTTCATCAGCATAAACTGTAAAGT
DNA 2: ACTTTACAGTTTATGCTGATGAAGATGAC
B11: VF2468 site 1 VEGF-A promoter (dsDNA)
DNA 1: AGCAGCGTCTTCGAGAGTGAGGA
DNA 2: TCCTCACTCTCGAAGACGCTGCT
B12: VF2468 site 73 (dsDNA)
DNA 1: AGCAAAGTCTGTACTGAGTGAGGG
DNA 2: CCCTCACTCAGTACAGACTTTGCT
B13: VF2468 site 68 PDE9A (dsDNA)
DNA 1: AGCACCGTCCCCCTCAGTGAGGC
DNA 2: GCCTCACTGAGGGGGACGGTGCT
B14: VF2468 site 79 (dsDNA)
DNA 1: AGCACCGTGGCTTCGAGTGAGGC
DNA 2: GCCTCACTCGAAGCCACGGTGCT
B15: VF2468 site 18 (dsDNA)
DNA 1: AGCAGAGTCAGACTTGAGTGAGGT
DNA 2: ACCTCACTCAAGTCTGACTCTGCT
B16: VF2468 site 87 (dsDNA)
DNA 1: AGCATTGTCTCATGTGAGTGAGGT
DNA 2: ACCTCACTCACATGAGACAATGCT
B17: VF2468 site 80 (dsDNA)
DNA 1: AGCACGGTCATGATGAGTGAGGC
DNA 2: GCCTCACTCATCATGACCGTGCT
B18: VF2468 site 72 (dsDNA)
DNA 1: AGAAACGTCGTGGAGGAGTGAGGG
DNA 2: CCCTCACTCCTCCACGACGTTTCT
B19: VF2468 site 23 (dsDNA)
DNA 1: AGCAGCGACGCCTGGGAGTGAGGT
DNA 2: ACCTCACTCCCAGGCGTCGCTGCT
B20: VF2468 site 11 PTK2B (dsDNA)
DNA 1: AGCAGCGTCTCCCTTGAGTGATGG
DNA 2: CCATCACTCAAGGGAGACGCTGCT

CCR5-224 ZFN pair expressed in K562 (artificial), sequence (chain, as listed by the source, chain 1 of 2): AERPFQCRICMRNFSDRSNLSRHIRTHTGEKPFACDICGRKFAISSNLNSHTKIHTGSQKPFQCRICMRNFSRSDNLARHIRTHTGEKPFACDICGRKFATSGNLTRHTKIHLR
CCR5-224 ZFN pair expressed in K562 (artificial), sequence (chain, as listed by the source, chain 2 of 2): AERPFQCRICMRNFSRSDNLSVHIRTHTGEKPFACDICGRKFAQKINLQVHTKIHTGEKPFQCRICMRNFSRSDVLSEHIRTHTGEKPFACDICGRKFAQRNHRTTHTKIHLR

The first data set addresses CCR5-224 ZFN pair expressed in K562 (artificial). Description: cell_activity; K562. The settings on record: tags: FokI cleavage domain. As to the method: We were unable to obtain site-specific PCR amplification products for three CCR5-224 sites and seven VF2468 sites and therefore could not analyze the occurrence of NHEJ at those loci. Taken together, these observations indicate that off-target sequences identified through the in vitro selection method include many DNA sequences that can be cleaved by ZFNs in human cells.
To deliver ZFN expression plasmids into cells, 15 μg of either active CCR5-224 ZFN DNA or empty vector DNA were used to Nucleofect 2×10⁶ K562 cells in duplicate reactions following the manufacturer's instructions for Cell Line Nucleofector Kit V (Lonza). GFP-positive cells were isolated by FACS 24 hours post-transfection, expanded, and harvested five days post-transfection with the QIAamp DNA Blood Mini Kit (Qiagen).
PCR for 37 potential CCR5-224 substrates and 97 potential VF2468 substrates was performed with Phusion DNA Polymerase (NEB) and primers “[ZFN] […] fwd” and “[ZFN] […] rev” (Table 9) in 1× Phusion HF Buffer supplemented with 3% DMSO. Primers were designed using Primer3³³. The amplified DNA was purified with the Qiagen PCR Purification Kit, eluted with 10 mM Tris-HCl, pH 8.5, and quantified by 1K Chip on a LabChip GX instrument (Caliper Life Sciences) and combined into separate equimolar pools for the catalytically active and empty vector control samples. PCR products were not obtained for 3 CCR5 sites and 7 VF2468 sites, which excluded these samples from further analysis. Multiplexed Illumina library preparation was performed according to the manufacturer's specifications, except that AMPure XP beads (Agencourt) were used for purification following adapter ligation and PCR enrichment steps. Illumina indices 11 (“GGCTAC”) and 12 (“CTTGTA”) were used for ZFN-treated libraries while indices 4 (“TGACCA”) and 6 (“GCCAAT”) were used for the empty vector controls. Library concentrations were quantified by KAPA Library Quantification Kit for Illumina Genome Analyzer Platform (Kapa Biosystems). Equal amounts of the barcoded libraries derived from active- and empty vector-treated cells were diluted to 10 nM and subjected to single read sequencing on an Illumina HiSeq 2000 at the Harvard University FAS Center for Systems Biology Core facility. Sequences were analyzed using Protocol 9 for active ZFN samples and empty vector controls.
As for B1, the activity came out at 0.12 % indels.
B2 registered an activity of 0.019 % indels.
On the same count and under the same terms, under B3 stands 0.035 % indels; under B4, 0.07 % indels; under B5, 0.06 % indels.
B6 returned an activity of 0.025 % indels.
The molecule B7 returned an activity of 10 % indels.
As for B8, the activity worked out at 0.071 % indels.
Turning to B9, the activity came out at 44 % indels.
As for B10, the activity came out at 0.34 % indels.

A further data set deals with CCR5-224 ZFN pair (artificial). Kind of data set: cleavage_in_vitro; ZFN amount for 50% cleavage of 8 nM linear substrate, 4 h 37 C, 10 mM Mg acetate. Conditions: tags: N-terminal FLAG, FokI cleavage domain. The protocol: (§1) FIGS. 6A-D. Expression and quantification of ZFNs. Western blots for CCR5-224 and VF2468 are shown (a) for the ZFN samples used in the in vitro selection, and (b) for quantification. (c) Known quantities of N-terminal FLAG-tagged bacterial alkaline phosphatase (FLAG-BAP) were used to generate a standard curve for ZFN quantification. […] (d) Gels are shown of activity assays of CCR5-224 and VF2468 on an 8 nM linear substrate containing one target cleavage site. The ZFNs were each incubated with their respective substrate for 4 hours at 37° C. DNA in the “+lysate” lane was incubated with an amount of in vitro transcription/translation mixture equivalent to that used in the 2.5 nM ZFN reaction. ZFN-mediated cleavage results in two linear fragments approximately 700 bp and 300 bp in length. 2 nM CCR5-224 and 1 nM VF2468 were the amounts required for 50% cleavage of the linear substrate.
(§2) Test substrates for CCR5-224 and VF2468 were constructed by cloning into the HindIII/XbaI sites of pUC19. PCR with primers “test fwd” and “test rev” and Taq DNA polymerase yielded a linear 1 kb DNA that could be cleaved by the appropriate ZFN into two fragments of sizes ˜300 bp and ˜700 bp. […] Reactions were purified with the Qiagen PCR Purification Kit and analyzed on 1% TAE-agarose gels.
As for B9, the midpoint of the response, the EC50, lay at 2 nM.

In a further data set the target is VF2468 ZFN pair (artificial). Kind of data set: cleavage_in_vitro; ZFN amount for 50% cleavage of 8 nM linear substrate, 4 h 37 C, 10 mM Mg acetate; FIG. 9 legend gives spacer as TCGAA. The settings on record: tags: N-terminal FLAG, FokI cleavage domain. The protocol: as §1, §2
VF2468 ZFN pair (artificial), sequence (chain, as listed by the source, chain 1 of 2): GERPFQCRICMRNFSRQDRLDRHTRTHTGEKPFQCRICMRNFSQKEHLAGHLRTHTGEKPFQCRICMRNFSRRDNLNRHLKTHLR
VF2468 ZFN pair (artificial), sequence (chain, as listed by the source, chain 2 of 2): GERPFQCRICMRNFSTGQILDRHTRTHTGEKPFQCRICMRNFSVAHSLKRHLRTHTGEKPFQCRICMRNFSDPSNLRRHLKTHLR
B11 came in with an EC50 of 1 nM.

In a further data set the target is VF2468 ZFN pair expressed in K562 (artificial). Description: cell_activity; K562. Conditions: tags: FokI cleavage domain.
B12: the activity turned out to be 1.3 % indels.
B13 registered an activity of 0.28 % indels.
The same measure, in the same setting: the result for B14 reads 0.029 % indels; that for B15, 0.1 % indels; that for B16, 0.6 % indels.
In the case of B17, the activity is 0.041 % indels.
Molecule B18 came in with an activity of 0.042 % indels.
Turning to B19, the activity amounted to 1.1 % indels.
The same measure, in the same setting: the result for B20 reads 0.04 % indels.

The values above are taken from patent US20150010526, “EVALUATION AND IMPROVEMENT OF NUCLEASE CLEAVAGE SPECIFICITY” (President and Fellows of Harvard College, published 2015).
